Measurements taken from patent US20230211003A1, “CONJUGATE COMPOUNDS FOR PREVENTING AND/OR TREATING HBV AND/OR HDV INFECTIONS, LIVER DISEASES ANDFOR TARGETING NTCP” (priority 2019, published 2023).
Where two headings read alike, the source gives them in different places. Square brackets hold non-standard residues; d marks the D form. Ends that are not written are not given here. Peptide text beside a SMILES is read from it. * marks the point of attachment. Ursodeoxycholyl = C[C@H](CCC(=O)*)[C@H]1CC[C@H]2[C@@H]3[C@@H](O)C[C@@H]4C[C@H](O)CC[C@]4(C)[C@H]3CC[C@]12C; Myristoyl = CCCCCCCCCCCCCC(=O)*

Assays:
[1] = tested on: HDV; experiment: microbe, parasite or virus in culture; format: cell-based, hepatitis D virus (HDV)
Excerpt: FIG. 3 HBV/HDV infection assay.
Tested were conjugate compounds comprising a truncated variant of Myrcludex B (amino acids 2-21) conjugated with bile acids cholic acid (CA) and ursodeoxy cholic acid (UDCA). They were compared with a control peptide not containing a bile acid moiety, namely HBVpreS/(-11)-21^myr (Genotype B) and the two bile acids CA and UDCA alone.
FIG. 4 HBV/HDV infection assay.
Tested were conjugate compounds comprising a truncated variant of Myrcludex B (amino acids 2-21) conjugated with cholic acid (CA) and a cyclic peptide (also comprising amino acids 2-21) conjugated with ursodeoxy cholic acid (UDCA). They were compared with a control peptide not containing a bile acid moiety, namely HBVpreS/2-21^myr (Genotype B).
FIG. 5 HBV/HDV infection assay of compounds conjugated with bile acid monomers and dimers.
Tested were three compounds: two conjugated with ursodeoxy cholic acid (UDCA) and one with a dimer of ursodeoxy cholic acid (UDCA)2, wherein two comprise amino acids 2-21 of Myrcludex B in a linear form and one as cyclic peptide.
FIG. 7 Infection inhibition of bile acid conjugates with linear peptide sequences Reduction of HDV infection by various bile acid conjugates, control peptides, ursodeoxycholic acid and cholic acid in Huh7-hNTCP cells. The cells were pretreated with the substances for 30 minutes and then co-incubated with the substances and HDV overnight. An in-cell ELISA was carried out five days after infection (n=3).
Reduction of HDV infection by various bile acid conjugates and control peptides in Huh7-hNTCP cells. The cells were pretreated with the substances for 30 minutes and then co-incubated with the substances and HDV overnight. An in-cell ELISA was carried out five days after infection (n=3).
Reduction of HDV infection by a bile acid dimer peptide conjugate bile acid conjugates as compared to the monomeric bile acid conjugates and the control peptides in Huh7-hNTCP cells. The cells were pretreated with the substances for 30 minutes and then coincubated with the substances and HDV overnight. An in-cell ELISA was carried out five days after infection (n=3).
Example 3 HDAg In-Cell ELISA (Huh7-hNTCP
1st Antibody Mouse or rabbit anti HDAg (FD3A7) 1:3000
2nd Antibody: Goat-anti-mouse or goat-anti-rabbit peroxidase conjugated 1:5000
Grow and infect cells in white 96-well plates.
1) Fix cells with 50 μl 4% PFA at RT for 30 min
5) Incubate with 100 μl primary antibody (1:3000) diluted in blocking buffer at RT with shaking for 1 h
9) Incubate with 100 μl 2nd Antibody 1:5000 in blocking buffer at RT with shaking for 1 h.
11) Add 50 μl luminescence substrate (mix according to manufacturer's protocol) and measure at plate reader directly after pipetting.
(Enhanced luciferase protocol, 0.1 s measurement)

[2] = target: human sodium taurocholate co-transporting polypeptide (NTCP/SLC10A1) (human) (UniProt Q14973); experiment: cell-based or functional assay
[3] = target: T1, human sodium taurocholate co-transporting polypeptide (NTCP/SLC10A1) (human, UniProt Q14973 1-349); experiment: cell-based or functional assay
T1 sequence: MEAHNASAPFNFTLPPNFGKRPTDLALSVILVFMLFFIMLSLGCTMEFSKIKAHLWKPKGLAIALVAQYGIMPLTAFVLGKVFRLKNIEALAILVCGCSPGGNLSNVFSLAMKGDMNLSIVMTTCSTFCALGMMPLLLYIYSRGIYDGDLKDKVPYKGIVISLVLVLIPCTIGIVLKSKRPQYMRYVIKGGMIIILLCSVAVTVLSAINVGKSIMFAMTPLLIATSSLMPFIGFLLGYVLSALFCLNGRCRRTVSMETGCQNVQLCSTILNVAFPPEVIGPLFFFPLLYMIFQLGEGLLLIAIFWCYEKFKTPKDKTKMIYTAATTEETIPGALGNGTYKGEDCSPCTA

[4] = experiments of FIGS. 7 and 9, Huh7-hNTCP cells pretreated 30 minutes, co-incubated with HDV overnight, in-cell ELISA five days after infection (n=3), read-out: IC 50
[5] = HDV infection, Huh7-hNTCP cells, in-cell ELISA, FIGS. 3, 4 and 5 (genotype B sequence), read-out: IC50

CCCCCCCCCCCCCC(=O)NCC(=O)N[C@H](C(=O)N[C@@H](CC(N)=O)C(=O)N[C@@H](CC(C)C)C(=O)N[C@@H](CO)C(=O)N[C@H](C(=O)N1CCC[C@H]1C(=O)N[C@@H](CC(N)=O)C(=O)N1CCC[C@H]1C(=O)N[C@@H](CC(C)C)C(=O)NCC(=O)N[C@@H](Cc1ccccc1)C(=O)N[C@@H](Cc1ccccc1)C(=O)N1CCC[C@H]1C(=O)N[C@@H](CC(=O)O)C(=O)N[C@@H](Cc1c[nH]cn1)C(=O)N[C@@H](CCC(N)=O)C(=O)N[C@@H](CC(C)C)C(=O)N[C@@H](CC(=O)O)C(=O)N1CCC[C@H]1C(=O)N[C@H](Cc1ccc(O)cc1)C(=O)N[C@@H](CCCCNC(=O)CC[C@@H](C)[C@H]1CC[C@H]2[C@@H]3[C@@H](O)C[C@@H]4C[C@H](O)CC[C@]4(C)[C@H]3CC[C@]12C)C(N)=O)C(C)C)[C@@H](C)O [HBVpreS/2-21myr-UDCA] (Myristoyl-GTNLSVPNPLGFFPDHQLDP[dY]K(Ursodeoxycholyl)-NH2)
IC50 [1, 4]: 9.2 nM

HBVpreS/2-21myr (consensus) (peptide)
IC 50, inhibition of HDV infection of Huh7-hNTCP cells (in-cell ELISA, FIGS. 7 and 9) [2]: 70.3 nM

MyrB-UDCA (peptide)
IC 50, inhibition of HDV infection of Huh7-hNTCP cells (in-cell ELISA, FIGS. 7 and 9) [2]: 1.5 nM

C[C@H](CCC(=O)O)[C@H]1CC[C@H]2[C@@H]3[C@@H](O)C[C@@H]4C[C@H](O)CC[C@]4(C)[C@H]3CC[C@]12C [UDCA, ursodeoxycholic acid]
IC50 [1, 5]: 79000 nM
IC50 [1, 4]: 79000 nM

HBVpreS/2-21myr-LCA (genotype B) (peptide)
IC 50, inhibition of HDV infection of Huh7-hNTCP cells (in-cell ELISA, FIGS. 7 and 9) [2]: 7.5 nM

HBVpreS/2-21myr-UDCA (genotype B) (peptide)
IC50, inhibition of HDV infection of Huh7-hNTCP cells (HDAg in-cell ELISA) [2]: 8.45 nM
IC 50, inhibition of HDV infection of Huh7-hNTCP cells (in-cell ELISA, FIGS. 7 and 9) [2]: 9.2 nM

C[C@H](CCC(=O)O)[C@H]1CC[C@H]2[C@@H]3[C@H](O)C[C@@H]4C[C@H](O)CC[C@]4(C)[C@H]3C[C@H](O)[C@]12C [CA, cholic acid]
IC50 ([1]; Hepatitis delta virus): 115000 nM

CCCCCCCCCCCCCC(=O)NCC(=O)N[C@H](C(=O)N[C@@H](CC(N)=O)C(=O)N[C@@H](CC(C)C)C(=O)N[C@@H](CO)C(=O)N[C@H](C(=O)N1CCC[C@H]1C(=O)N[C@@H](CC(N)=O)C(=O)N1CCC[C@H]1C(=O)N[C@@H](CC(C)C)C(=O)NCC(=O)N[C@@H](Cc1ccccc1)C(=O)N[C@@H](Cc1ccccc1)C(=O)N1CCC[C@H]1C(=O)N[C@@H](CC(=O)O)C(=O)N[C@@H](Cc1c[nH]cn1)C(=O)N[C@@H](CCC(N)=O)C(=O)N[C@@H](CC(C)C)C(=O)N[C@@H](CC(=O)O)C(=O)N1CCC[C@H]1C(N)=O)C(C)C)[C@@H](C)O [HBVpreS/2-21myr] (Myristoyl-GTNLSVPNPLGFFPDHQLDP-NH2; C-terminus assumed)
IC50 [1, 5]: 62.8 nM

HBVpreS/2-21myr-(UDCA)2 (genotype B) (peptide)
IC50, inhibition of HDV infection of Huh7-hNTCP cells (HDAg in-cell ELISA) [2]: 3.55 nM
IC 50, inhibition of HDV infection of Huh7-hNTCP cells (in-cell ELISA, FIGS. 7 and 9) [2]: 12.7 nM

HBVpreS/2-21myr-CA (genotype B) (peptide)
IC50, inhibition of HDV infection of Huh7-hNTCP cells (HDAg in-cell ELISA) [2]: 7.27 nM
IC 50, inhibition of HDV infection of Huh7-hNTCP cells (in-cell ELISA, FIGS. 7 and 9) [2]: 12.5 nM

Myristoyl-GTNLSVPNPLGFFPDHQLDP [HBVpreS/2-21myr (Genotype B)]
IC50, inhibition of HDV infection of Huh7-hNTCP cells (HDAg in-cell ELISA) [3]: 62.8 nM
